“Also recorded” adds a separate entry of the source.
Legend:
[1] = tested on: linoleic acid hydro peroxide (LOOH); test: AOS activity assay: degradation of linoleic hydroperoxide (LOOH) followed at 234 nm; assay type: biochemical, guayule
Procedure: A difference spectra of this extract clearly indicated a characteristic peak at 450 nm (arrow, FIG. 6C). […] This substrate was prepared according to Zimmerman (Zimmerman, Biochem. Biophys. Res. Comm. 23:398-403 (1966); Zimmerman and Feng, Lipids 13:313-316 (1978); Zimmerman and Vick, Plant. Physiol. 46:445-453 (1970)).
(1991) and Zimmerman, op cit. (1966); Zimmerman and Vick, op cit. (1970) and Zimmerman and Feng, op cit. (1978)

[2] = Backhaus et al. 1991; cited from earlier work
tobacco leaf disks = test: Cell leakage analysis of leaf disks treated with methyl viologen; assay type: cell-based, tobacco cv. Samsun; settings: transgenic AOS tobacco vs untransformed control; 1.2 μM methyl viologen
Procedure: Transgenic cv. Samsun tobacco plants that […] AOS and untransformed cv. Samsun plants were gown in a growth chamber maintained at 28° C. and an irradiance of 500 μmole quanta per square meter per sec. at 16 hours per day. Leaf disks of transgenic plants (FIG. 20, disks 3, 6, 14 and 17) were compared with untransformed plants (FIG. 20, disk C) according to the general method set forth in Gupta et al., Proc. Natl. Acad. Sci. USA 90: 1629-1633 (1993).
Leaf disks (2 cm^2) were collected from tobacco plants and placed in petri dishes (15×60 mm) containing 4 ml of a 1.2 μM methyl viologen (MV) solution and vacuum infiltrated for 5 min. MV values are means ±SD (n=4). The samples were incubated at 22° C. for 16 hours in darkness followed by illumination at 500 μM quanta per square meter per sec. for 2 hours. The leaf disks then were incubated for an additional 16 hours in darkness.
The MV solution was collected for conductivity with leaf disks then was autoclaved for 10 min. at 121° C. The conductivity of the autoclaved solution was again measured. The present electrolyte leakage was determined by dividing the value of conductivity of MV solution by the value obtained after autoclaving.

[3] = Prenyltransferase activity: incorporation of 14C-isopentenyl pyrophosphate into isoprenoid derivatives, TLC; assay type: biochemical, guayule; settings: CHAPS-solubilized, filtered RPP; DMAPP as initiator; 100 μl aliquots
Procedure: Biochemical analyses were performed on RPP purified from rubber particles. Three-times-washed rubber particles were prepared by centrifugation according to Cornish and Backhaus, op cit. (1990) from a crude homogenate of guayule stembark. […] Prenyltransferase activity was determined for each purification step by measuring the incorporation of ^14 C-isopentenyl pyrophosphate into isoprenoid derivatives that were analyzed by TLC (benzene/ethyl acetate, 90/10) and autoradiography (Dogbo and Camara, Plant Sci. 49: 103-109 (1987); Kuntz et al., Plant J. 2:25-34 (1992)). Dimethylallyl pyrophosphate (DMAPP) was used as the initiator to measure activity in 100 μl aliquots of proteins from each of the three steps (FIG. 6B, lanes 1-3). […] However, prenyltransferase activity was present in both the crude homogenate and washed preparations containing rubber particles (cf. FIG. 6B, lane 3 with lanes 1 and 2). […]
Washed rubber particles were prepared by centrifugation according to Cornish and Backhaus, op cit.(1990) from a crude homogenate of guayule stembark. […] Prenyltransferase activity was determined for each purification step by measuring the incorporation of ^14 C-isopentenyl pyrophosphate into isoprenoid derivatives according to Dogbo and Camara, op cit. […]

[4] = tested on: linoleic acid conjugated dienes; test: UV spectrophotometry of superoxide-induced linoleic acid conjugated dienes (A234); assay type: biochemical, guayule
Procedure: Likewise, the effect of superoxide, produced by the riboflavin/TEMED mixture and light, on lipid peroxidation was determined. […] The mixture was exposed to light and scanned in a UV spectrophotometer at 200 to 300 nm at 10 sec intervals for 2 minutes and again at 5 and 10 min. The effect of AOS on superoxide-inducedlinoleic hydroperoxides was determined using partially pure AOS solubilized from fresh rubber particles using the CHAPS extraction and filtration procedure (Pan et al., J Biol Chem 270: 8487-8494, 1995), which removed all remaining rubber. One μg partially pure AOS was added to oxidized linoleic acid and UV scanned at 2 minute intervals.
This mixture was scanned at A234 followed by addition of riboflavin/TEMED and exposure to 10 min. of light, to produce superoxide. The mixture was rescanned at 10 min intervals.

lipid hydroperoxides = settings: Hamberg 1987; cited from earlier work

B1: RPP: polypeptide of 53,500 Daltons from guayule rubber particles; non-mono-oxygenase cytochrome P450 heme-binding protein, a species of allene oxide synthase (protein)
chain: MDPSSKPLREIPGSYGIPFFQPIKDRLEYFYGTGGRDEYFRSRMQKYQSTVFRANMPPGPFVSSNPKVIVLLDAKSFPILFDVSKVEKKDLFTGTYMPSTKLTGAYRVLSYLDPSEPRHAQLKNLLFFMLKNSSNRVIPQFETTYYELFEGLEAELAKNGKAAFNDVGEQAAFRFLGRAYFNSNPEETKLGTSAPTLISSWVLFNLAPTLDLGLPWFLQEPLLHTFRLPAFLIKSTYNKLYDYFQSVATPVMEQAEKLGVPKDEAVHNILFAVCFNTFGGVKILFPNTLKWIGVAGENLHTQLAEEIRGAIKSYGDGNVTLEAIEQMPLTKSVVYESLRIEPPVPPQYGKAKSNFTIESHDATFEVKKGEMLFGYQPFATKDPKVFDRPEEFVPDRFVGDGEALLKYVWWSNGPETESPTVENKQCAGKDFVVLITRLFVIELFRRYDSEIELGESPLGAAVTLTFLKRASI
In the case of B1, the “AOS activity (LOOH degradation)” value ([1]; UV spectra at 10 sec intervals) is given as “high AOS activity”, the “time to complete disappearance of LOOH (234 nm peak)” value ([1]; enzyme preparation added to cuvette with LOOH, repetitive UV scans at 10 sec intervals) is given as 10 min and the “isoelectric point (pI), experimental value” [2] is given as 6.2. For the same molecule, the percent electrolyte leakage (tobacco leaf disks) was “substantially less percent electrolyte leakage”, the prenyltransferase activity [3] was “complete absence of prenyltransferase activity; also recorded: synthesizes no isoprenes” and the “A234 increase on exposure to light (superoxide) with AOS present” value ([4]; linoleic acid + riboflavin/TEMED + AOS) was “prevented the increase in A234”. For the same molecule, the “A234 (conjugated dienes) after AOS added to oxidized linoleic acid” value ([4]; linoleic acid oxidized by riboflavin/TEMED in light, 1 μg partially pure AOS, listed as AOS) was “A234 decreased; also recorded: time-dependent disappearance of conjugated dienes” and the kcat (lipid hydroperoxides) was > 1000 s⁻¹.
